Measured values reported in paper PMC3014985.
Values joined by “and” are separate entries in the source; they are usually repeats but may differ in a detail not shown here. Equal values may be shown once. Read-outs that look alike come from different tables or passages of the source.

Columns and labels:
[1] = target: 6His-RVFV NP (Rift Valley fever virus nucleoprotein with N-terminal hexahistidine tag) (Rift Valley fever virus (strain Smithburn)) (UniProt P21700); test: SEC
[2] = target: 6His-RVFV NP (Rift Valley fever virus nucleoprotein with N-terminal hexahistidine tag) (Rift Valley fever virus (strain Smithburn)) (UniProt P21700); test: SEC; remark: listed apart in the source

Substance: 6His-RVFV NP (Rift Valley fever virus nucleoprotein with N-terminal hexahistidine tag) (from UniProt P21700 1-245) (natural protein)
- stoichiometry N [1]: 3 and 2
- stoichiometry N [2]: 4.3
